Holding throughout (assay): SEC
Experiment [1] deals with SARS-CoV-2 Nsp15 A93S (SARS-CoV-2).
The target of experiment [2] is SARS-CoV-2 Nsp15 D133Y (SARS-CoV-2).
Experiment [3] deals with SARS-CoV-2 Nsp15 D220Y (SARS-CoV-2).
Experiment [4] concerns the target SARS-CoV-2 Nsp15 G18E (SARS-CoV-2).
For experiment [5], the target named is SARS-CoV-2 Nsp15 G18R (SARS-CoV-2).
For experiment [6], the target named is SARS-CoV-2 Nsp15 H235Y (SARS-CoV-2).
Experiment [7] has as its target SARS-CoV-2 Nsp15 K13N (SARS-CoV-2).
For experiment [8], the target named is SARS-CoV-2 Nsp15 K13R (SARS-CoV-2).
For experiment [9], the target named is SARS-CoV-2 Nsp15 K260R (SARS-CoV-2).
Experiment [10] addresses SARS-CoV-2 Nsp15 K290N (SARS-CoV-2).
Experiment [11] addresses SARS-CoV-2 Nsp15 L163F (SARS-CoV-2).
Experiment [12] has as its target SARS-CoV-2 Nsp15 P206S (SARS-CoV-2).
Experiment [13] addresses SARS-CoV-2 Nsp15 R207S (SARS-CoV-2).
The target in experiment [14] is SARS-CoV-2 Nsp15 T34I (SARS-CoV-2).
Experiment [15] addresses SARS-CoV-2 Nsp15 T115A (SARS-CoV-2).
Experiment [16] addresses SARS-CoV-2 Nsp15 V128F (SARS-CoV-2).
The target in experiment [17] is SARS-CoV-2 Nsp15 W333C (SARS-CoV-2).

SARS-CoV-2 Nsp15 A93S (enzyme): the Hex/Mono Ratio in experiment [1] was 0.49.
SARS-CoV-2 Nsp15 D133Y (enzyme): the Hex/Mono Ratio in experiment [2] came out at 0.48.
On to SARS-CoV-2 Nsp15 D220Y (enzyme), for which, in experiment [3], the Hex/Mono Ratio was 0.63.
For SARS-CoV-2 Nsp15 G18E (enzyme), the Hex/Mono Ratio in [4] worked out at 0.56.
Consider SARS-CoV-2 Nsp15 G18R (enzyme), for which the Hex/Mono Ratio in [5] came out at 0.88.
SARS-CoV-2 Nsp15 H235Y (enzyme): the Hex/Mono Ratio in experiment [6] is 1.61.
For SARS-CoV-2 Nsp15 K13N (enzyme), in [7], the Hex/Mono Ratio came out at 0.63.
On to SARS-CoV-2 Nsp15 K13R (enzyme), for which the Hex/Mono Ratio in experiment [8] came to 1.18.
Turning to SARS-CoV-2 Nsp15 K260R (enzyme), the Hex/Mono Ratio in [9] is 1.8.
Turning to SARS-CoV-2 Nsp15 K290N (enzyme), in [10], the Hex/Mono Ratio is 2.12.
Turning to SARS-CoV-2 Nsp15 L163F (enzyme), in experiment [11], the Hex/Mono Ratio turned out to be 0.23.
With SARS-CoV-2 Nsp15 P206S (enzyme), the Hex/Mono Ratio in experiment [12] amounted to 2.49.
Turning to SARS-CoV-2 Nsp15 R207S (enzyme), in experiment [13], the Hex/Mono Ratio is 0.14.
Consider SARS-CoV-2 Nsp15 T34I (enzyme), for which, in [14], the Hex/Mono Ratio is 1.01.
SARS-CoV-2 Nsp15 T115A (enzyme): in experiment [15], the Hex/Mono Ratio came to 0.55.
For SARS-CoV-2 Nsp15 V128F (enzyme), the Hex/Mono Ratio in [16] was determined as 0.5.
On to SARS-CoV-2 Nsp15 W333C (enzyme), for which the Hex/Mono Ratio in experiment [17] is 0.77.
